Consider two substances from patent US20190321303A1.

Common to all, as to assay: cell-based or functional assay
Assay [1] concerns the target Trypsin having an activity of approx. 10,000 BAEE units per mg.
The target of assay [2] is Chymotrypsin having an activity of approx. 40 BTEE units per mg.
For assay [3] the target is unchanged. The conditions noted are these: scale: mg ChymoTrypsin inhibited/1 mgP-ChymoTrypsin Inhibitor.
Where [4] appears, read: scale: mg ChymoTrypsin inhibited/1 mgP-ChymoTrypsin Inhibitor.

For “SBTI intermediate (crude soybean trypsin inhibitor preparation from soy flour)”, in assay [1], the KTI activity, quality control of material loaded on the DEAE column amounted to 0.97 not printed and the Trypsin inhibitor activity of SBTI intermediate (large-scale prep) (mg trypsin inhibited per mg protein) was determined as 1.34. In assay [2], this substance gave a BBI activity, quality control of material loaded on the DEAE column of 0.09 not printed and a Chymotrypsin inhibitor activity of SBTI intermediate (large-scale prep) (mg chymotrypsin inhibited per mg protein) of 0.98.
For “Bowman-Birk inhibitor (BBI) purified from soy flour”, in assay [3], the BBI activity, step: BBI After formulation and microfiltration 0.45/0.2 worked out at 0.8; the BBI activity, step: BBI permeate, after 30 Kda UF and additional washes was determined as 0.8; the BBI activity, step: BBI pool stood at 0.6; the BBI activity, step: BBI pool after microfiltration 0.45/0.2 amounted to 0.6. In assay [3], this substance returned a BBI activity, step: Final after lyophilization of 0.9; a BBI activity, step: Retentate of 5 KDa after 5x concentration of 0.9; a BBI activity, step: Retentate of 10 Kda after diafiltration of 1. In assay [2], this substance yielded a BBI activity of final product, after the change of the filtration process of 0.8 to 1.4 mg⁻¹; a BBI activity of final product, before the change of the filtration process of 0.4 to 0.6 mg⁻¹; a BBI activity, step: Final after lyophilization "as-is" (mg chymotrypsin inhibited per mg solid) of 0.8; a Chymotrypsin inhibitor activity of purified BBI (mg chymotrypsin inhibited per mg) of 1.49. In assay [2] (setting [4]), this substance gave a BBI activity, step: BBI permeate of 30 Kda. of 0.8; a BBI activity, step: BBI pool of 0.5; a BBI activity, step: Permeate of 5 KDa of 0.13; a BBI activity, step: Retentate of 5 KDa after 4.5 x concentration of 0.8. In assay [2] (setting [4]), this substance returned a BBI activity, step: Retentate of 10 Kda after diafiltration of 0.7 and a BBI activity, step: Retentate of 30 KDa of 0.13. In assay [2] (scale: mg chymotrypsin inhibited per mg dry weight), this substance came in with a BBI activity, final lyophilized product on the basis of dry weight of 0.9. Moreover, in assay [2] (scale: not given), the BBI Activity, large-scale prep turned out to be 1.49 and the BBI Activity, previous procedure was 1.2.
